# How the values were obtained:
# HLA-A*23:01 = assay: IEDB peptide-MHC binding, purified MHC/competitive/radioactivity; filed as Kd, often an IC50 or EC50 that approximates it; ≥ and ≤ were set here for values at or beyond the usual limits of such assays
# HLA-A*24:02 = assay: as above
# HLA-A*01:01 = assay: as above
# HLA-A*26:01 = assay: as above
# HLA-A*29:02 = assay: as above
# HLA-A*30:02 = assay: as above
# HLA-B*57:01 = assay: IEDB peptide-MHC binding, purified MHC/direct/fluorescence; filed as Kd, often an IC50 or EC50 that approximates it; ≥ and ≤ were set here for values at or beyond the usual limits of such assays
# HLA-B*15:01 [1] = assay: IEDB peptide-MHC binding, purified MHC/competitive/radioactivity; filed as Kd, often an IC50 or EC50 that approximates it; ≥ and ≤ were set here for values at or beyond the usual limits of such assays
# HLA-B*46:01 [2] = assay: IEDB peptide-MHC binding, purified MHC/direct/fluorescence; filed as Kd, often an IC50 or EC50 that approximates it; ≥ and ≤ were set here for values at or beyond the usual limits of such assays; conditions: source organism: West Nile virus
# HLA-B*44:02 = assay: IEDB peptide-MHC binding, purified MHC/competitive/radioactivity; filed as Kd, often an IC50 or EC50 that approximates it; ≥ and ≤ were set here for values at or beyond the usual limits of such assays; conditions: source organism: Dengue virus 4 Philippines/H241/1956
# HLA-B*53:01 = assay: as above
# HLA-B*58:01 = assay: IEDB peptide-MHC binding, purified MHC/direct/fluorescence; filed as Kd, often an IC50 or EC50 that approximates it; ≥ and ≤ were set here for values at or beyond the usual limits of such assays; conditions: source organism: Giardia lamblia ATCC 50803
# HLA-B*40:01 = assay: IEDB peptide-MHC binding, purified MHC/competitive/radioactivity; filed as Kd, often an IC50 or EC50 that approximates it; ≥ and ≤ were set here for values at or beyond the usual limits of such assays
# HLA-B*44:03 = assay: as above; conditions: source organism: Dengue virus 2 Jamaica/1409/1983
# HLA-B*15:01 [3] = assay: IEDB peptide-MHC binding, purified MHC/competitive/fluorescence; filed as Kd, often an IC50 or EC50 that approximates it; ≥ and ≤ were set here for values at or beyond the usual limits of such assays
# HLA-A*30:01 = assay: IEDB peptide-MHC binding, purified MHC/competitive/radioactivity; filed as Kd, often an IC50 or EC50 that approximates it; ≥ and ≤ were set here for values at or beyond the usual limits of such assays
# HLA-A*02:01 = assay: IEDB peptide-MHC binding, purified MHC/competitive/fluorescence; filed as Kd, often an IC50 or EC50 that approximates it; ≥ and ≤ were set here for values at or beyond the usual limits of such assays; conditions: source organism: Escherichia coli B171
# HLA-A*03:01 = assay: IEDB peptide-MHC binding, purified MHC/competitive/radioactivity; filed as Kd, often an IC50 or EC50 that approximates it; ≥ and ≤ were set here for values at or beyond the usual limits of such assays
# HLA-A*11:01 = assay: as above
# HLA-A*31:01 = assay: as above; conditions: source organism: Vaccinia virus WR
# HLA-A*33:01 = assay: as above; conditions: source organism: Vaccinia virus WR
# HLA-A*68:01 = assay: as above
# HLA-B*46:01 [4] = assay: IEDB peptide-MHC binding, purified MHC/competitive/fluorescence; filed as Kd, often an IC50 or EC50 that approximates it; ≥ and ≤ were set here for values at or beyond the usual limits of such assays; conditions: source organism: Francisella tularensis subsp. tularensis FSC198
# [5] = source organism: Dengue virus 2 Jamaica/1409/1983
# [6] = source organism: SARS coronavirus Tor2
# [7] = source organism: Vaccinia virus WR
# [8] = source organism: Vaccinia virus Copenhagen
# [9] = source organism: Dengue virus 4 Philippines/H241/1956
# [10] = source organism: Dengue virus 3 Martinique/1243/1999
# [11] = source organism: Mammarenavirus machupoense
sequence,measurement,setting,value
IWYMWLGARF,Kd,HLA-A*23:01; [5],8.27 nM
same,Kd,HLA-A*24:02; [5],6.14 nM
KFADDLNQM,Kd,HLA-A*01:01; [6],≥ 78100 nM
same,Kd,HLA-A*23:01; [6],659 nM
same,Kd,HLA-A*24:02; [6],1500 nM
same,Kd,HLA-A*26:01; [6],≥ 44300 nM
same,Kd,HLA-A*29:02; [6],124 nM
same,Kd,HLA-A*30:02; [6],≥ 30000 nM
KIEELFYSY,Kd,HLA-A*01:01; [6],540 nM
same,Kd,HLA-A*23:01; [6],≥ 23900 nM
same,Kd,HLA-A*24:02; [6],≥ 20700 nM
same,Kd,HLA-A*26:01; [6],≥ 81500 nM
same,Kd,HLA-A*29:02; [6],39.2 nM
same,Kd,HLA-A*30:02; [6],11.6 nM
KIMKVVNRW,Kd,HLA-B*57:01; source organism: Yellow fever virus,131 nM
KWDLIISDMY,Kd,HLA-A*01:01; [6],≥ 90900 nM
same,Kd,HLA-A*23:01; [6],≥ 70000 nM
same,Kd,HLA-A*24:02; [6],≥ 39400 nM
same,Kd,HLA-A*26:01; [6],≥ 20700 nM
same,Kd,HLA-A*29:02; [6],253 nM
same,Kd,HLA-A*30:02; [6],85.9 nM
LAIPATEFF,Kd,HLA-B*15:01 [1]; [7],4.16 nM
LAPFNFLVF,Kd,HLA-B*15:01 [1]; [7],135 nM
LGFDVVAYF,Kd,HLA-B*15:01 [1]; [8],67.3 nM
LGRANITHF,Kd,HLA-B*15:01 [1]; [7],6.73 nM
LIIKLLLPG,Kd,HLA-B*15:01 [1]; [7],1120 nM
LLLMRTTWAF,Kd,HLA-A*23:01; [9],694 nM
same,Kd,HLA-A*24:02; [9],292 nM
same,Kd,HLA-B*15:01 [1]; [9],1.24 nM
LMNDPGAPW,Kd,HLA-B*46:01 [2],8980 nM
LQGRGPLKLF,Kd,HLA-B*15:01 [1]; [5],135 nM
LQRKHGGML,Kd,HLA-B*15:01 [1]; [10],31.2 nM
LSKNTFYLF,Kd,HLA-B*15:01 [1]; [7],14.2 nM
LVRSTVSSI,Kd,HLA-B*15:01 [1]; [8],527 nM
MTDKTPVHSW,Kd,HLA-B*44:02,1410 nM
same,Kd,HLA-B*53:01; [9],891 nM
NGVVTTSGTY,Kd,HLA-A*30:02; source organism: Dengue virus 1 Brazil/97-11/1997,694 nM
NPAQEDDQY,Kd,HLA-B*53:01; [9],746 nM
NSKVQIGEY,Kd,HLA-A*01:01; [6],≥ 37700 nM
same,Kd,HLA-A*23:01; [6],≥ 77800 nM
same,Kd,HLA-A*24:02; [6],≥ 34800 nM
same,Kd,HLA-A*26:01; [6],235 nM
same,Kd,HLA-A*29:02; [6],2270 nM
same,Kd,HLA-A*30:02; [6],57.2 nM
RMAILGETAW,Kd,HLA-B*15:01 [1]; [9],253 nM
same,Kd,HLA-B*44:02,1620 nM
SARGLCNTW,Kd,HLA-B*57:01; source organism: Giardia lamblia ATCC 50803,112 nM
same,Kd,HLA-B*58:01,56.5 nM
SEIPNLDII,Kd,HLA-B*40:01; [5],112 nM
same,Kd,HLA-B*44:03,60.4 nM
STLRTLKPY,Kd,HLA-B*15:01 [3]; source organism: Bacillus cereus G9241,148 nM
SYAQMWSLMY,Kd,HLA-A*30:02; source organism: Dengue virus 2 Peru/IQT2913/1996,≥ 69700 nM
TPRMCTREEF,Kd,HLA-B*53:01; [5],1300 nM
TVDSSQGSEY,Kd,HLA-A*01:01; [6],15.7 nM
same,Kd,HLA-A*23:01; [6],≥ 70000 nM
same,Kd,HLA-A*24:02; [6],≥ 70300 nM
same,Kd,HLA-A*26:01; [6],1070 nM
same,Kd,HLA-A*29:02; [6],823 nM
same,Kd,HLA-A*30:02; [6],414 nM
TVFIRFPHY,Kd,HLA-A*30:01; [7],1270 nM
same,Kd,HLA-B*15:01 [1]; [7],123 nM
VDICFWSTI,Kd,HLA-A*01:01; [11],1760 nM
same,Kd,HLA-A*23:01; [11],12500 nM
same,Kd,HLA-A*24:02; [11],1070 nM
same,Kd,HLA-A*26:01; [11],≥ 77900 nM
same,Kd,HLA-A*29:02; [11],≥ 78900 nM
same,Kd,HLA-A*30:02; [11],5110 nM
VEETNMITLL,Kd,HLA-B*40:01; source organism: Dengue virus 4 Dominica/814669/1981,25 nM
VQYRGLYQI,Kd,HLA-A*02:01,125 nM
same,Kd,HLA-B*15:01 [3]; source organism: Escherichia coli B171,107 nM
VSENTGMGMY,Kd,HLA-A*03:01; [7],1620 nM
same,Kd,HLA-A*11:01; [7],2360 nM
same,Kd,HLA-A*29:02; [7],34 nM
same,Kd,HLA-A*31:01,13400 nM
same,Kd,HLA-A*33:01,≥ 24200 nM
same,Kd,HLA-A*68:01; [7],≥ 36900 nM
VSYSTFCLG,Kd,HLA-B*15:01 [1]; [7],710 nM
VTFKNPHAK,Kd,HLA-A*03:01; [5],9.59 nM
same,Kd,HLA-A*11:01; [5],137 nM
same,Kd,HLA-A*30:01; [5],278 nM
same,Kd,HLA-A*68:01; [5],133 nM
VTYNCCDDDY,Kd,HLA-A*01:01; [6],32.6 nM
same,Kd,HLA-A*23:01; [6],≥ 70000 nM
same,Kd,HLA-A*24:02; [6],≥ 70300 nM
same,Kd,HLA-A*26:01; [6],18500 nM
same,Kd,HLA-A*29:02; [6],4490 nM
same,Kd,HLA-A*30:02; [6],80 nM
VWLGFIAGL,Kd,HLA-A*01:01; [6],≥ 78100 nM
same,Kd,HLA-A*23:01; [6],7040 nM
same,Kd,HLA-A*24:02; [6],≥ 46900 nM
same,Kd,HLA-A*26:01; [6],≥ 77900 nM
same,Kd,HLA-A*29:02; [6],36.2 nM
same,Kd,HLA-A*30:02; [6],12 nM
WENNIKLTV,Kd,HLA-B*40:01; [10],120 nM
WMVHRQWFF,Kd,HLA-A*23:01; [10],125 nM
same,Kd,HLA-A*24:02; [10],835 nM
YIGGTTQAF,Kd,HLA-B*46:01 [4],4420 nM

# From the Immune Epitope Database (IEDB)
